For 4 sequences, activity (% mutant offspring) results are on record in patent US20160215297.

Assay in all cases: cell_activity
The test system of data set [1] is Il2rg TALEN left (synthetic construct). Particulars: pair with TALEN right; mRNA electroporated into rat zygotes, 3/17 offspring; Surveyor assay positive in rat fibroblasts.
In data set [2] the test system is Il2rg ZFN right (synthetic construct). Particulars: pair with ZFN left; mRNA electroporated into rat zygotes, 3/4 offspring; Surveyor assay positive in rat fibroblasts; 37% and 73% in Tests 5-1 and 5-2.
For data set [3], the system named is Il2rg TALEN right (synthetic construct). Particulars: pair with TALEN left; mRNA electroporated into rat zygotes, 3/17 offspring; Surveyor assay positive in rat fibroblasts.
Data set [4] relates to Il2rg ZFN left (synthetic construct). Particulars: pair with ZFN right; mRNA electroporated into rat zygotes, 3/4 offspring; Surveyor assay positive in rat fibroblasts; 37% and 73% in Tests 5-1 and 5-2.

In the case of “TCCCAGAGGTTCAATGCT (double strand) [Il2rg TALEN left binding site]”, in data set [1], the activity (% mutant offspring) was found to be 18. With “GGTATGAGAAGGGGG (double strand) [Il2rg ZFN right binding site]”, the activity (% mutant offspring) in data set [2] came to 75.

In the case of “TCCAAGTGCAATTCATATACT (double strand) [Il2rg TALEN right binding site]”, the activity (% mutant offspring) in data set [3] was 18.

For “GCATAGTGAGGTTGG (double strand) [Il2rg ZFN left binding site]”, in data set [4], the activity (% mutant offspring) came out at 75.
